The target in series [1] is T1, myc-Notch2 on K1-CHO cells (Homo sapiens, UniProt Q04721).
T1 construct: either the Notch1 or Notch2 extracellular domain and trans-membrane domains were N-terminally myc-tagged; expressed in transfected cells; host or cells: CHO-K1 (Tet-inducible, doxycycline)
Description: FACS binding to K1-CHO cells expressing N-myc-Notch2. Type of series: cell-based. To be noted: doxycycline induced. From the text:
The N-myc-Notch transgenes were expressed under control of the inducible tet promoter; bottom row, control expression in the absence of induction with doxycycline (−Dox); top row, induced expression following addition of doxycycline (+Dox); note that the K1-CHO line endogenously expresses Notch2, which is detected by anti-NRR2 in the presence and absence of doxycycline (for example, compare panels 7 and 10).
Expression plasmids were made in which either the Notch1 or Notch2 extracellular domain and trans-membrane domains were N-terminally myc-tagged and expressed under the control of a Tetracycline Response Element (TRE) upstream of a minimal CMV immediate early promoter. These plasmids were stably transfected into CHO-K1 cells (Clonetech), engineered to express a transactivator protein in the presence of Doxycycline that binds to and activates the TRE in the transfected plasmid. Cells were treated with […] doxycycline or vehicle for 48 hrs, and then stained with anti-NRR, anti-myc (9E10, Millipore) or E25 control antibodies and either goat anti-human Alexa 488 or Alexa 647 secondary antibodies (Invitrogen). After staining, cells were run on a FACScalibur machine (BD Biosciences) and 15000 events were collected and range gates were drawn to assess positively and negatively stained populations.

Series [2] relates to thymus, CD4+/CD8+ double-positive T cells. The series is described as follows: In vivo thymus / T cell development in Balb/c mice. Set-up: species or system mouse. To be noted: 5 mg/kg four times every four days. The procedure: (§1) Balb/c mice were injected four times every four days with 5 mg/kg of α-gD isotype control, α-NRR1 or α-NRR2, and cells were harvested from the thymus or spleen on day 13, one day after the fourth dose. (A) Thymus weight measurements. Thymus weights (in mg) are expressed relative to total body weight (in g). Values represent the mean plus standard deviation for three mice per group. (B) Thymus cell count. (C) CD4 and CD8 FACS to identify CD4^+/CD8^+ double-positive T cells. Numbers represent the percentage of thymic cells in the double-negative, single-positive and double-positive populations. […] (D) CD21 and CD23 FACS to identify marginal zone B cells. Numbers represent the mean percentages ±standard deviation (from three animals) of cells within the MZB gate, which is boxed; p values are also noted; representative dot plots from one of the three animals in each group are graphed.
(§2) Splenocytes were isolated from the mice and were stained for FACS with B220-PerCP, CD23-PE and CD21-FITC (BD Biosciences) as previously described (Saito, et al., Immunity, Vol. 18, 675-685, May 2003).

For series [3], the system named is splenic marginal zone B (MZB) cells. Description: Marginal zone B cell analysis in Balb/c mice. Type of series: in vivo, mouse. As to conditions: 5 mg/kg, spleen, CD21/CD23 FACS, three animals. The procedure: as §1, §2
A short description of series [4]: Total body weight change in antibody-dosed mice. It is filed as in vivo, mouse. From the text:
(A) Total body weight change (mean+/−standard deviation) vs. time. […] Arrows mark the days of dosing. (B) Immunohistochemical analyses of small intestines. […] In each row as indicated, staining is shown for haemotoxylin and eosin (H & E), Alcian Blue for mucin and to mark secretory goblet cells, lysozyme to mark Paneth cells, Ki-67 for proliferation and Hes1 as a Notch downstream target. See FIGS. 19 and 20 for analyses of the large intestine at day 7 and of the small intestine at day 2, respectively. Bar=40 μm. (C) Comparison of Notch1- versus Notch2-specific inhibition on small intestinal cell differentiation. Small intestines from the study described in (A) were prepared for Alcian Blue and Ki-67 one day after the final dosing with α-gD, α-NRR1 or α-NRR2, as indicated. Bar=50 μm.
(B) Immunohistochemical analyses of small intestines from mice treated as in (A), using Alcian Blue for mucin to mark secretory goblet cells.

In the next series the test system is LOX-IMVI melanoma cells. The series is described as follows: Cell Titer Glo viability of melanoma cell line LOX-IMVI. It is filed as cell-based, human. To be noted: six days, antibodies 20 mg/ml, DAPT 5 μM, ± Jagged-1. The procedure:
Human melanoma cell lines SK23 and LOX-IMVI were plated in medium containing 2% FBS at low density (4000 cells/well for SK23, 2500 cells/well for LOX-IMVI) in 96 well plates that were coated without (−jag-1) or with Jagged-1 ligand (+jag-1) (R&D Systems, Minneapolis, Minn.). […] An equal volume of DMSO served as the vehicle control, whereas an equal concentration of anti-gD HuB6 phage antibody served as the isotype control antibody. Cell Titer Glo assays (Promega, Madison, Wis.) were performed six days after plating. […] In FIGS. 25A and 25B, cell viability (y-axis) is expressed relative to the values from the DMSO vehicle, −jag-1 control wells.
A general note: Cellular ATP, detected with luciferase, serves as a proxy for viable cell number.

The subject of another series is DB DLBCL cell line. Description: Growth of DB diffuse large B-cell lymphoma cell line in vitro. Type of series: cell-based. The procedure:
Diffuse large B-cell lymphoma (DLBCL) is the most common type of non-Hodgkin's lymphoma. […] (See Lee et al., Cancer Sci. 100:920-926, 2009.) However, how DLBCL cells would respond to Notch2 inhibition was not known. Therefore, we investigated the effect of anti-NRR2 on five DLBCL cell lines. The DLBCL lines listed on the right of FIG. 26 were grown in replicates for three days in wells of a 384-well plate. The cell cultures included the indicated concentrations of anti-NRR2 (referred to as “anti-Notch2” in FIGS. 26 and 27), which corresponded to three-fold serial dilutions starting at 10 μg/ml. Growth was assessed using Cell Titer Glo assays (Promega), plotted as the percentage of cell viability relative to treatment with an isotype control antibody. The data points in FIG. 26 represent average values obtained from individual wells for each cell line at the indicated antibody concentrations. […] The DB line was grown in wells of a 12-well plate, and the cultures were treated with DMSO, the gamma-secretase inhibitor DAPT, anti-gD isotype control antibody or anti-NRR2 at the indicated concentrations. Growth was assessed by counting viable cells (Vi-CELL, Beckman Coulter, Fullerton, Calif.) at days 2, 3 and 5 after inoculating and treating the cultures. Values represent the mean of measurements from three independent cultures, plus/minus the standard deviation.

“And” between values parts separate entries of the source, which are not always exact repeats. Equal entries are not always repeated.

T1 sequence (Q04721 26-1677 limits assumed): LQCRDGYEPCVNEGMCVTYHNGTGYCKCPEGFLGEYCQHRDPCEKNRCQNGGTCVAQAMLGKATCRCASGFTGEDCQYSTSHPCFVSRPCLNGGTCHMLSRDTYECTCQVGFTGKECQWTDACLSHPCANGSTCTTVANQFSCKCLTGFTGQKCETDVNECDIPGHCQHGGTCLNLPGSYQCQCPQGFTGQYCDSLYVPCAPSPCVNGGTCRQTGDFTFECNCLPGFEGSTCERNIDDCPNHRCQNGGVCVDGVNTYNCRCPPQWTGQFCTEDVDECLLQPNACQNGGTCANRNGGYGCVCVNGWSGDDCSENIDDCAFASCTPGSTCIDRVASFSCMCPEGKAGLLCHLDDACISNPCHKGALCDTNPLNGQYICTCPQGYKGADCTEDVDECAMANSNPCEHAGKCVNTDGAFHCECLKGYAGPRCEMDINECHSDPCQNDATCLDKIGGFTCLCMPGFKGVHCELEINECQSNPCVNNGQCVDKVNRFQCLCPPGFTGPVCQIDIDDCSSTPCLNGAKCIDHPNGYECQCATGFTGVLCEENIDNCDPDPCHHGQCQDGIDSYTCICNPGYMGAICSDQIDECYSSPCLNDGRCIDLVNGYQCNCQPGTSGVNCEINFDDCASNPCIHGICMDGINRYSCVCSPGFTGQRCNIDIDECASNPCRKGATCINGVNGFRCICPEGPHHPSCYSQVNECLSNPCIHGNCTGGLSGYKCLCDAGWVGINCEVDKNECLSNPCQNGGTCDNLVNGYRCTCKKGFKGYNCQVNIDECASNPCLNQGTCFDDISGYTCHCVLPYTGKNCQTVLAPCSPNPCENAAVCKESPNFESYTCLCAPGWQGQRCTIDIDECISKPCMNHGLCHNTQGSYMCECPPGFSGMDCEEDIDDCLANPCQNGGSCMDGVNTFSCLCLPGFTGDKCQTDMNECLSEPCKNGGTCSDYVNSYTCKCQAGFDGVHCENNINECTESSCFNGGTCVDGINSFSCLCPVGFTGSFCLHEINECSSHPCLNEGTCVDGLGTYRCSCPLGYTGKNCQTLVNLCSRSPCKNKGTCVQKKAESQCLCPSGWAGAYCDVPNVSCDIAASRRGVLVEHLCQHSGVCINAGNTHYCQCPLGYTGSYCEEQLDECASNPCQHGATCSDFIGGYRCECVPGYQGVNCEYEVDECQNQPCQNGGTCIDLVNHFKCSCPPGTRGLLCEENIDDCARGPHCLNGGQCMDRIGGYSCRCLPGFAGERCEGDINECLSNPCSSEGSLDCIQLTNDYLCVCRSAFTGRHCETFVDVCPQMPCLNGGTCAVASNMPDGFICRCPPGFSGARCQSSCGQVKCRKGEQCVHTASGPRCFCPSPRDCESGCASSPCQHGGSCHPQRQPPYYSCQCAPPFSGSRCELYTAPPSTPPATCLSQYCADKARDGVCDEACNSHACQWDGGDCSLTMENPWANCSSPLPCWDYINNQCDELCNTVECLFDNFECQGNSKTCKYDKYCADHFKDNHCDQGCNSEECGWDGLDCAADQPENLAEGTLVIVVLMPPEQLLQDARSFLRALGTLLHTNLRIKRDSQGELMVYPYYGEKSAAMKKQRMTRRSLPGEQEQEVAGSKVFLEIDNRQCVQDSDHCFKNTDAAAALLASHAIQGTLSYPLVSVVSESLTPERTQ

B1: anti-NRR2: affinity matured form of Antibody D, phage library-derived human anti-Notch2 NRR monoclonal antibody (antibody, V domains shown)
VH: EVQLVESGGGLVQPGGSLRLSCAASGYTFSSYGMSWVRQAPGKGLEWVSYIYPYSGATYYADSVKGRFTISADTSKNTAYLQMNSLRAEDTAVYYCARHSGYYRISSAMDVWGQGTLVTVSA
VL: DIQMTQSPSSLSASVGDRVTITCRASQNIKRFLAWYQQKPGKAPKLLIYGASTRESGVPSRFSGSGSGTDFTLTISSLQPEDFATYYCQQYYRSPHTFGQGTKVEIKR
For B1, in series [1], the “binding to myc-Notch2 cells” value is reported as “significantly bound”. Also, in series [2] (day 13), the “total number of cells in the thymus” value is listed as “not”. In series [2] (day 13, FACS), the “percentage of thymic cells in the CD4+/CD8+ population” value was determined as 80%. Besides, the “percentage of cells within the MZB gate (mean ± standard deviation)” value in series [3] is 0.97% and 0.97+/−0.45%. Also, the “total body weight change” value in series [4] (first experiment (FIG. 15A)) is “weight gains”. In series [4] (second experiment, 5 mg/kg (FIG. 24A)), the effect on weight result is “little or no effect”. Further, in the series on LOX-IMVI melanoma cells, the cell viability result is on record as “decrease in viability”. Also, in the series with DB DLBCL cell line (days 2, 3 and 5), the “growth over time (viable cell counts)” value is on record as “suppresses the growth”. Moreover, in the series with DB DLBCL cell line (three days, three-fold dilutions from 10 μg/ml), the “growth (cell viability relative to isotype control)” value was “strongly inhibited”.

(Values after patent US8404239B2, “Anti-Notch2 NRR antibodies” (Genentech, Inc., priority 2008, dated 2013).)
